Measurements as given in the supplement of paper PMC10567573.

B1: BTBD10 (parent)
chain: FVYENAKEGARNIRTSERVTLIVD

Variants of: B1
Experiment: protein stability index of a GFP-peptide fusion (GPS, HEK-293T) (PSI 1-6); higher = more stable
Conditions: c terminus: a fixed tail appended
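Also: lentivirally expressed fusions sorted by FACS into six bins by GFP to DsRed ratio, PSI derived from sequencing read proportions per bin multiplied by bin number.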

Protein stability index of substitutions, site by site:
K7: V 1.93, P 2.4, C 2.32, M 1.82, L 1.42, W 1.63, E 2.74, T 2.11, R 1.86, S 2.56, A 2.23, G 1.99, N 2.54, D 2.58, F 1.85, Y 1.75, H 1.95, I 2.5, Q 2.19
L21: K 2.6, T 2.07, I 1.57, P 2.03, S 2.32, W 2.56, R 2.14, N 2.63, V 1.64, H 2.11, C 2.32, G 2.56, Q 2.83, E 2.79, F 1.88, M 1.99, Y 1.89, A 2.34, D 3.07
V19: Y 2.35, S 2, W 1.53, G 2.21, Q 2.6, E 2.86, C 2.49, M 1.62, L 2, K 1.91, A 2.45, R 2.34, I 1.61, N 2.43, P 2.73, H 2.35, D 2.48, T 2.39, F 2.27
I22: P 2.89, N 2.72, F 2.06, K 2.34, M 2.77, D 2.96, A 1.76, R 2.24, V 2.92, W 3.09, L 1.72, Y 1.81, S 2.67, H 2.2, C 2.33, E 3, T 2.41, Q 2.31, G 1.72
G9: K 1.7, Q 2.09, M 2.47, S 1.8, R 2.17, V 1.77, T 2.09, P 2.02, D 2.49, N 2.15, F 2.31, E 2.33, H 1.72, C 1.83, A 1.85, I 1.74, Y 1.41, L 2.12
E17: R 1.46, P 1.54, D 1.74, Q 1.87, V 3.52, H 1.8, F 3.19, G 3.65, M 2.82, K 2.18, C 3.19, A 2.17, N 2.22, L 3.89, T 1.23, Y 2.24, I 2.25, S 1.91
D24: C 1.91, A 1.49
A6: K 2.13, P 2.41, N 2.43, V 1.85, Y 1.57, R 1.84, T 2.5, L 1.69, M 2.08, S 1.78, W 2.05, I 1.79, Q 1.96
E8: A 1.52, T 2.11, C 2.11, N 1.81, Y 1.94, P 2.44, K 1.93, W 2.04, G 1.86, Q 1.8, M 2.11, F 1.86, I 1.87, V 1.47, L 2.29, D 2.28, H 2.25, S 1.72, R 2.83
V23: D 2.39, F 1.99, Q 2.47, W 1.4, P 3.05, E 2.89, N 2.92, Y 1.7, H 2.26, I 1.82, G 2.11, S 2.25, T 2.16, L 2.07, M 2.04, K 2.06, A 2.26, R 2.68, C 2.15
R14: Q 2.08, L 1.55, V 2.05, S 2.33, N 2.32, K 1.68, A 2.17, C 1.83, D 2.33, P 1.85, Y 2.85, E 2.18, W 2.87, T 2.14, H 1.99, I 2.02, M 2.04, G 1.99, F 2.38
A10: N 2.16, C 1.84, T 2.03, H 1.58, W 2.32, I 2, M 1.62, G 2.08, Y 1.86, E 2.79, F 2.18, V 2.1, K 2.32, S 2.01, P 2.7, D 2.26, L 1.89, Q 2.05, R 2.2
T15: M 1.97, S 2.38, Q 2.68, I 1.68, H 2.15, L 1.47, G 2.36, D 2.37, V 1.75, R 2.06, P 1.81, F 1.99, K 2.25, C 1.91, N 2.11, Y 1.39, A 2.26, E 2.48
N12: A 1.82, G 1.98, C 1.51, L 1.34, T 1.93, W 3.12, I 1.84, Y 2.61, K 2.19, E 2.08, V 1.17, F 2.65, R 1.96, H 1.5, Q 1.7, S 1.97, D 1.93, P 2.65, M 1.56
T20: H 2.06, A 1.73, R 1.81, L 1.48, K 2.07, Q 2.18, F 2.63, S 2.27, W 3.5, V 1.38, P 3.04, N 2.56, Y 1.81, E 2.06, I 1.84, M 1.82, D 1.92, G 1.59, C 2.74
R11: A 2.29, I 1.75, T 2.19, E 3.09, Q 2.16, K 1.9, P 1.84, C 2.07, L 2.67, N 1.83, V 2.3, F 2.38, M 1.59, G 2.31, D 2.82, S 2.18, Y 1.59, H 2.16
I13: L 2.5, N 2.52, K 2, R 2.4, G 2.31, C 1.8, P 2.21, T 2.4, H 2.4, V 2.06, A 1.77, E 2.34, D 2.52, M 1.64, Q 2.38, S 2.44, Y 2.37, F 2.43, W 1.68
R18: N 2.07, E 2.29, S 1.89, A 1.77, L 1.83, Y 1.44, V 1.69, I 1.66, M 1.97, Q 1.79, C 1.83, P 2.31, D 2.61, W 2.27, G 2.31, F 2.16, K 2.1, T 1.98, H 1.98
S16: C 2.02, W 2.1, L 1.39, T 1.89, Y 2.44, P 2.33, N 2.64, G 2.41, H 1.78, M 2.28, V 1.34, K 2.09, D 2.33, R 2.34, F 1.58, I 2.38, A 1.99, Q 2.18, E 2.57
